Measured values from patent US20260022175A1 (Chugai, published 2026).
Where a chain is given by its changes, count along the chain named.

B1: 04H1637-Kn125/04L1610-lam1//04H1637-Hl076/04L1610-lam1 (antibody, human IgG1, lambda)
heavy 1: QVQLVESGGGLVKPGGSLRLSCAASGFTFSSKTMNWVRQAPGKGLEWVSSISTQSHYIYYAESVRGRFTISRDNAKNSLYLQMNSLRAEDTAVYYCARYGKREDMLWVFDYWGQGTLVTVSSASTKGPSVFPLAPSSKSTSGGTAALGCLVKDYFPEPVTVSWNSGALTSGVHTFPAVLQSSGLYSLSSVVTVPSSSLGTQTYICNVNHKPSNTKVDKKVEPKSCDKTHTCPPCPAPEYQWGPMVFLFPPKPKDTLMISRTPEVTCVVVDVSDEEPEVKFNWYVDGVEVHNAKTKPREEQYNATYRVVSVLTVLHQDWLNGKEYKCKVSNKALPAPIEKTISKAKGQPREPQVCTLPPSRDELTKNQVSLWCLVKGFYPSDIAVEWESNGQPENNYKTTPPVLDSDGSFFLYSKLTVDKSRWQQGNVFSCSVMHEALHNHYTQKSLSLSP
heavy 2: QVQLVESGGGLVKPGGSLRLSCAASGFTFSSKTMNWVRQAPGKGLEWVSSISTQSHYIYYAESVRGRFTISRDNAKNSLYLQMNSLRAEDTAVYYCARYGKREDMLWVFDYWGQGTLVTVSSASTKGPSVFPLAPSSKSTSGGTAALGCLVKDYFPEPVTVSWNSGALTSGVHTFPAVLQSSGLYSLSSVVTVPSSSLGTQTYICNVNHKPSNTKVDKKVEPKSCDKTHTCPPCPAPELLGGPSVFLFPPKPKDTLMISRTPEVTCVVVDVSHEEPEVKFNWYVDGVEVHNAKTKPREEQYNSTYRVVSVLTVLHQDWLNGKEYKCKVSNDALPMPIEETISKAKGQPREPQVYTLPPSRCELTKNQVSLSCAVKGFYPSDIAVEWESNGQPENNYKTTPPVLDSDGSFFLVSKLTVDKSRWQQGNVFSCSVMHEALHNHYTQKSLSLSP
light: QSALTQPPSASGSPGQSVTISCEGPSTGVGDYNWVHWYQQHPGKAPKLMIYFTSKKPSGVPDRFSGSKSGNTASLTVSGLQAEDEADYYCQTYAAPLGPMFGGGTKLTVLGQPKAAPSVTLFPPSSEELQANKATLVCLISDFYPGAVTVAWKADSSPVKAGVETTTPSKQSNNKYAASSYLSLTPEQWKSHRSYSCQVTHEGSTVEKTVAPTECS
notes: Heterodimerized antibody, Fc variant of WO 2013/002362; also called 04H1637-Kn125/04L1610-lam1//04H1637-H1076/04L1610-lam1
B2: 04H1637-Kn462/04L1610-lam1//04H1637-Hl445/04L1610-lam1 (antibody, human IgG1, lambda)
heavy 1: B1 heavy 1 with Y239F, T255V, T312P, K331D
heavy 2: B1 heavy 2 with G241A, T255V, S303A, T312P, M335K, I337D
light: B1 light
notes: Heterodimerized antibody; also called 04H1637-Kn462/04L1610-lam1//04H1637-H1445/04L1610-lam1
B3: 04H1637-Kn461/04L1610-lam1//04H1637-Hl443/04L1610-lam1 (antibody, human IgG1, lambda)
heavy 1: B1 heavy 1 with Y239F, T255V, T312P, K331D, I337E
heavy 2: B1 heavy 2 with G241A, T255V, S303A, T312P, M335A, I337E
light: B1 light
notes: Heterodimerized antibody; also called 04H1637-Kn461/04L1610-lam1//04H1637-H1443/04L1610-lam1

What was measured:
[1] = biological target: T1, human FcγRIa extracellular domain with C-terminal His-tag (human, UniProt P12314 16-292); assay: SPR; KD of 04H1637-G1m/04L1610-lam1 divided by KD of variant;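 note: biacore T200 SPR at 25 °C, antibodies captured on anti-Fab-lambda SA chip with receptor as analyte, running buffer pH 7.4 for FcγRs and pH 6.0 for FcRn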
T1 construct: extracellular domain; also called hFcγR Ia; hFcγRIa
T1 sequence (P12314 16-292): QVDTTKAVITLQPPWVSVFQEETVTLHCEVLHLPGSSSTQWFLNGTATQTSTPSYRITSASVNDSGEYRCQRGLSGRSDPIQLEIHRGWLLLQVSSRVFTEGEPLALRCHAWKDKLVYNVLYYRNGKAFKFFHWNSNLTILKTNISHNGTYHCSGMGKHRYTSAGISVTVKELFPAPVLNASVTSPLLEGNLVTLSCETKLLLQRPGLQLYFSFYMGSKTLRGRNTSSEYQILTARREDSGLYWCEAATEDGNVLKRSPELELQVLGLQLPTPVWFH

[2] = biological target: T2, human FcγRIIa R allotype extracellular domain with C-terminal His-tag (human, UniProt P12318 34-217); assay: as above
T2 construct: extracellular domain; also called hFcγR IIa R
T2 sequence (looked up): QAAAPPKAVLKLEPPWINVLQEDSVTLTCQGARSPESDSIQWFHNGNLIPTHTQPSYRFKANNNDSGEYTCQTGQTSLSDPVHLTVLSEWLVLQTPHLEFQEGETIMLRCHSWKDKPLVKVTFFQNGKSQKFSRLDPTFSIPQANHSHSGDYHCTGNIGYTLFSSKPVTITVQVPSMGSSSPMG

[3] = biological target: T3, human FcγRIIIa F allotype extracellular domain with C-terminal His-tag (human, UniProt P08637 17-208); assay: as above
T3 construct: extracellular domain; also called hFcγR IIIa F
T3 sequence (P08637 17-208): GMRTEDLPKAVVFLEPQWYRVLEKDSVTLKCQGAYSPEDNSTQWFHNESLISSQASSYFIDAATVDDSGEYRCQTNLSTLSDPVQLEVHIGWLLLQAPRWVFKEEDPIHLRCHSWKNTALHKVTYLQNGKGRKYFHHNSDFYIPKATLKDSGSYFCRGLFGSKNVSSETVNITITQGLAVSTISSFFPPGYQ

[4] = biological target: T4, human FcγRIIa H allotype extracellular domain with C-terminal His-tag (human, UniProt P12318 34-217); assay: as above
T4 construct: extracellular domain; also called hFcγR IIa H
T4 sequence (looked up): T2 sequence (looked up) with R134H

[5] = biological target: T5, human FcγRIIIa V allotype extracellular domain with C-terminal His-tag (human, UniProt P08637 17-208); assay: as above
T5 construct: extracellular domain; also called hFcγR IIIa V
T5 sequence (P08637 17-208 F176V): as the sequence (P08637 17-208) above, with F160V counted along it

[6] = biological target: T6, human FcγRIIb extracellular domain with C-terminal His-tag (human, UniProt P31994 43-217); assay: SPR; binding amount divided by that of 04H1637-G1m/04L1610-lam1
T6 construct: extracellular domain; also called hFcγR IIb
T6 sequence (looked up): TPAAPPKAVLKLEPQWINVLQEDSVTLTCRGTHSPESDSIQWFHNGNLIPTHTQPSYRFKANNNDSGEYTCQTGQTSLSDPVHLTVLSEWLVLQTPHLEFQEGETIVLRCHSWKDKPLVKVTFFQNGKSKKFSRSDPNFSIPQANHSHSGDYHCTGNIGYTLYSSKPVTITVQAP

[7] = biological target: T1, human FcγRIa extracellular domain with …; assay: SPR Biacore T200, Ab captured via Fab-lambda, pH 7.4, 25C;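 note: antibodies captured on a streptavidin chip carrying biotinylated anti-Fab-lambda, with each FcγR injected as analyte in phosphate buffer. KD fitted by 1:1 Langmuir or steady-state model depending on receptor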
Method: (§1) The interaction between the generated antibodies and human FcγRs was analyzed by the following method using Biacore T200. 50 mM Na-Phosphate, 150 mM NaCl, 0.05% Tween20 (pH 7.4) was used as the running buffer, and the assay was performed at 25° C. For the sensor chips, Series S SA (GE Healthcare) chips onto which CaptureSelect Human Fab-lambda Kinetics Biotin Conjugate (Thermo Fisher Scientific) was immobilized were used. The antibodies of interest were captured onto these chips and each FcγR diluted in the running buffer was allowed to interact with them. Chips were regenerated with 10 mM Glycine-HCl (pH 1.5) and 25 mM NaOH, and assay was performed by repeatedly capturing antibodies. The dissociation constants KD (mol/L) for FcγRs of each antibody were calculated using Biacore T200 Evaluation Software 2.0, using the 1:1 Langmuir binding model for FcγRIa and FcγRIIIa and the steady state affinity model for FcγRIIa. For FcγRIIb, the binding amount of FcγRIIb per unit amount of antibody was calculated by correcting the binding amount of FcγRIIb obtained from the sensorgram obtained by the measurement with the amount of antibody captured onto the chip surface.

[8] = biological target: T2, human FcγRIIa R allotype extracellular …; assay: as above
Method: as §1

[9] = biological target: T3, human FcγRIIIa F allotype extracellular …; assay: as above
Method: as §1

[10] = biological target: T4, human FcγRIIa H allotype extracellular …; assay: as above
Method: as §1

[11] = biological target: T5, human FcγRIIIa V allotype extracellular …; assay: as above
Method: as §1

[12] = biological target: T6, human FcγRIIb extracellular domain with …; assay: SPR; FcγRIIb at 1000 nM, bound amount per unit captured Ab
Method: as §1

Row | Binder | Relative value to KD between G1m and hFcγRs [1] | Relative value to KD between G1m and hFcγRs [2] | Relative value to KD between G1m and hFcγRs [3] | Relative value to KD between G1m and hFcγRs [4] | Relative value to KD between G1m and hFcγRs [5] | Relative binding amount [6] | Kd [7] [nM] | Kd [8] [nM] | Kd [9] [nM] | Kd [10] [nM] | Kd [11] [nM] | Binding amount [12]
1 | B1 | 1.2 | 1.6 | 406 | 3.6 | 126 | 0.9 | 0.04 | 1200 | 3.4 | 410 | 1.9 | 0.007
2 | B2 | 0.6 | 18.7 | 382 | 37.5 | 131 | 3.7 | 0.076 | 110 | 3.6 | 39 | 1.8 | 0.03
3 | B3 | 1.2 | 10.7 | 616 | 11.1 | 226 | 3.1 | 0.042 | 190 | 2.2 | 130 | 1.1 | 0.025
